The target of assay [1] is HPV16 E6 PDZ ligand peptide (biotinylated C-terminal peptide of the E6 protein of HPV 16) (human papillomavirus 16) (UniProt P03126). The assay is described as follows: G assay ELISA, signal over GST-only well. Background: ELISA stands for enzyme-linked immunosorbent assay.
The target is the same in assay [2]. The assay is described as follows: G assay ELISA, immobilised GST-PDZ, 10 uM biotinylated peptide.
For assay [3], the target named is GST-Magi3 PDZ domain 1 (human) (UniProt Q5TCQ9). The assay is described as follows: Matrix/G assay ELISA, E6 peptide titrated on GST-PDZ.
Chain of GST-Magi3 PDZ domain 1 (human) (Q5TCQ9 other isoform, or with tags, fused parts or gaps limits assumed, form in doubt): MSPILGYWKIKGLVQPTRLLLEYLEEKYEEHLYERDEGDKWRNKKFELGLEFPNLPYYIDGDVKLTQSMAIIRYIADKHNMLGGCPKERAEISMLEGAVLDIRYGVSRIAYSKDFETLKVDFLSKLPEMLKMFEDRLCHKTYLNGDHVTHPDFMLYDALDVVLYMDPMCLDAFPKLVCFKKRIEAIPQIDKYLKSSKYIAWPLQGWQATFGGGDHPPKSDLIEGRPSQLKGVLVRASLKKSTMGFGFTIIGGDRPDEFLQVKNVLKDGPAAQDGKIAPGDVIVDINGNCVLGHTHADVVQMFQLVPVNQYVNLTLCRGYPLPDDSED
Assay [4] addresses GST-VARTUL PDZ domain (number not stated) (human) (UniProt Q14160). Described as above.
Assay [5] has as its target GST-Magi3 PDZ domain 1 (human) (UniProt Q5TCQ9). Put plainly: G assay ELISA, E6 PL peptide titrated on constant GST-PDZ.
In assay [6] the target is GST-VARTUL PDZ domain (number not stated) (human) (UniProt Q14160). The description is as above.
Chain of GST-VARTUL PDZ domain (number not stated) (human) (Q14160 other isoform, or with tags, fused parts or gaps limits assumed): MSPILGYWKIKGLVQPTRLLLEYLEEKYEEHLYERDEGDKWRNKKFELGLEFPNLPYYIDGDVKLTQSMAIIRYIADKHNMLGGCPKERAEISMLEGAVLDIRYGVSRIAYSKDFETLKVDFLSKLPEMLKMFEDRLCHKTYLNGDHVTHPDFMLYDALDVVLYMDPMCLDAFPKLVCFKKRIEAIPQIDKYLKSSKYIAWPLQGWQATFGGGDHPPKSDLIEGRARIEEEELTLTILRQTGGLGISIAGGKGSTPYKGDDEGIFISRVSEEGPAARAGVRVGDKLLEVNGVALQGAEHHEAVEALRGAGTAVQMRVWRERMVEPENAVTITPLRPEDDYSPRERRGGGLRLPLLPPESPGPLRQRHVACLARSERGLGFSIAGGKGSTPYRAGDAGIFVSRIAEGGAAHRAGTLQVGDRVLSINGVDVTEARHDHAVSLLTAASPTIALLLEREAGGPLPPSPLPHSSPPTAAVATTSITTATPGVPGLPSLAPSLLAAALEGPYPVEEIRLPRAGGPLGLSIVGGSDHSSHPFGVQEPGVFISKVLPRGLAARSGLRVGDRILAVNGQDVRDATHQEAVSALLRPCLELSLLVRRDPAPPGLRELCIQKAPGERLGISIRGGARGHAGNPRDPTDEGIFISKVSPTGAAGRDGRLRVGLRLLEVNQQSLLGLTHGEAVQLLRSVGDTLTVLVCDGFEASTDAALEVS
Assay [7] deals with GST-DLG-6 PDZ domain 1, clone #333.1 (human) (UniProt Q96JB8). Put plainly: G assay ELISA, 10 uM biotin peptide on anti-GST-captured GST-PDZ.
Chain of GST-DLG-6 PDZ domain 1, clone #333.1 (human) (Q96JB8 other isoform, or with tags, fused parts or gaps): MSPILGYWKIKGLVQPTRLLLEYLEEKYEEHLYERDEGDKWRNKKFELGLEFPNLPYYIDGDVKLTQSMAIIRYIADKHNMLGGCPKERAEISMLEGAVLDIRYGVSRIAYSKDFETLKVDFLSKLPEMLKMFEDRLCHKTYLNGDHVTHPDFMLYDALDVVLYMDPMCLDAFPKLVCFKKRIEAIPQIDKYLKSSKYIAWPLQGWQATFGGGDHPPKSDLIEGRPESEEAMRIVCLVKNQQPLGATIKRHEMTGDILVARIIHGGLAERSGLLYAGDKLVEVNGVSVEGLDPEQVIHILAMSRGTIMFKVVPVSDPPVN
In assay [8] the target is GST-Densin PDZ domain 1 (human). The assay is described as above.
The target in assay [9] is GST-EBP50 PDZ domain 1, clone #341.1 (human). The description is as above.
The target of assay [10] is GST-EBP50 PDZ domain 2, clone #168.2 (human). Described as above.
Assay [11] addresses GST-HEMBA 1003117 PDZ domain 1, clone #226.2 (human). The assay is described as above.
Assay [12] addresses GST-KIAA1526 PDZ domain 1, clone #119.1 (human). The assay is described as above.
In assay [13] the target is GST-KIAA1719 PDZ domain 5 (human). Described as above.
In assay [14] the target is GST-MAGI 1 PDZ domain 5 (human). The assay is described as above.
For assay [15], the target named is GST-MINT1 PDZ domains 1, 2 (human) (UniProt Q02410). Described as above.
Chain of GST-MINT1 PDZ domains 1, 2 (human) (Q02410 other isoform, or with tags, fused parts or gaps limits assumed): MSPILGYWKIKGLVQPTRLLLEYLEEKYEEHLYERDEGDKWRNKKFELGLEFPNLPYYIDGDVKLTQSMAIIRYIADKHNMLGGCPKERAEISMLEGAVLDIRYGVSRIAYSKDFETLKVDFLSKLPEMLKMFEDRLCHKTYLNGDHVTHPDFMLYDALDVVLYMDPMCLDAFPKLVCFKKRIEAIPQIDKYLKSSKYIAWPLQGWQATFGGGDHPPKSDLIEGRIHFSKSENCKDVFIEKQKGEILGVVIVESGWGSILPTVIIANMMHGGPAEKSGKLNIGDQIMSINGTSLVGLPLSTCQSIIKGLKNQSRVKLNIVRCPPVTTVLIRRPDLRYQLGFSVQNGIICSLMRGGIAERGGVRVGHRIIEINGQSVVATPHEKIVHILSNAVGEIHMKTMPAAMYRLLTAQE
For assay [16], the target named is GST-Magi2 PDZ domain 3 (human) (UniProt Q86UL8). Described as above.
Chain of GST-Magi2 PDZ domain 3 (human) (Q86UL8 other isoform, or with tags, fused parts or gaps limits assumed, form in doubt): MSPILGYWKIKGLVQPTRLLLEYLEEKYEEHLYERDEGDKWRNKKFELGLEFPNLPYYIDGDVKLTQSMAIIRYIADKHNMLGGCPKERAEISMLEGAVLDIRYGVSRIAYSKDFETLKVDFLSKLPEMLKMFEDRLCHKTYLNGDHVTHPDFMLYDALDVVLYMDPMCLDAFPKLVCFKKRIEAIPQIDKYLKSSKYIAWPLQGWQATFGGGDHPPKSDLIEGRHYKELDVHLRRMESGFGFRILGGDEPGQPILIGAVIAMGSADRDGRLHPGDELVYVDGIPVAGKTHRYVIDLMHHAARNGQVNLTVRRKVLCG
In assay [17] the target is GST-PAR3 PDZ domain 3, clone #278.1 (human). The assay is described as above.
In assay [18] the target is GST-PIST PDZ domain 1 (human). The assay is described as above.
Assay [19] concerns the target GST-PTPL1 PDZ domain 2 (human). The assay is described as above.

Where “and” joins values, the source holds several entries; their conditions need not be identical. Equal values may be shown once.

One may read the EC50 as the concentration at which the effect is half-maximal. A higher EC50 goes with weaker potency.

As to GST-NeDLG PDZ domain 1 fusion protein, the OD S/N in [1] came out at 1.98. The substance also came in with an Ave OD in [2] of 0.516 A450 nm.
On to “HPV16 E6 C-terminal PDZ ligand peptide (20 mer, biotinylated) (from UniProt P03126 139-158)”, for which the EC50 in assay [3] turned out to be 310 nM; in [4], 940 nM; in assay [5], 310 nM; in [6], 940 nM. For the same substance, the Ave OD was 0.349 A450 nm in assay [7]; 0.42 A450 nm and 0.35 A450 nm in assay [8]; 0.43 A450 nm in assay [9]; 0.345 A450 nm in assay [10]; 0.36 A450 nm in [11]; 0.425 A450 nm in assay [12]. The Ave OD was 0.39 A450 nm in assay [13]; 0.432 A450 nm in assay [14]; 0.365 A450 nm in assay [15]; 0.416 A450 nm and 0.359 A450 nm in assay [16]; 0.352 A450 nm in assay [17]; 0.386 A450 nm in [18]. In addition, the Ave OD in [19] was determined as 0.348 A450 nm. For the same substance, the OD S/N (ratio to GST only well) in assay [7] was 2.04; in [8], 1.96 and 1.82; in assay [9] it was 1.65; in [10], 1.99; in [11], 1.66; in [12], 1.38. Also, the OD S/N (ratio to GST only well) in assay [13] was 1.81; in assay [14], 1.77; in assay [15], 1.42; in assay [16], 1.98 and 1.65; in assay [17], 1.8; in assay [18] it was 1.96. Also, the OD S/N (ratio to GST only well) in assay [19] worked out at 1.8.
GST-INADL PDZ domain 3 fusion protein came in with an OD S/N in [1] of 1.86. In assay [2], the Ave OD came out at 0.485 A450 nm.
In the same order, the values of “GST-Magi2 PDZ domain 5 fusion protein (from UniProt Q86UL8 920-1010)” are 3.93 and 0.651 A450 nm.
As to GST-PDZK1 PDZ domain 3 fusion protein, the OD S/N in [1] came out at 1.92. Moreover, in assay [2], the Ave OD was 0.5 A450 nm.

The values above are taken from patent publication US20040229298A1.
